Data set [1] concerns the target T1, L-selectin (cell surface, Jurkat T lymphocytes) (Homo sapiens?) (UniProt P14151).
T1 sequence: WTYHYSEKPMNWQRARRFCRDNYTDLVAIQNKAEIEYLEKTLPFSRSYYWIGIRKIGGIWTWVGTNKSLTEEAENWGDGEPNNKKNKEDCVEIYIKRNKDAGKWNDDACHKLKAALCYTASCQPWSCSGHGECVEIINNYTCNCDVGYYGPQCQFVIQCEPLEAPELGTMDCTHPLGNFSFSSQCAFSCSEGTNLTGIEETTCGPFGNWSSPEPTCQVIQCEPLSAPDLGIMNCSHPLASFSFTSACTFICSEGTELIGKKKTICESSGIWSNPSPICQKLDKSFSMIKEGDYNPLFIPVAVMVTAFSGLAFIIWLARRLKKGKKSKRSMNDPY
As to the kind of experiment: competition (flow cytometry). The settings on record: vs 100 nM FITC-DREG56 antibody, 4°C, Jurkat cells, competition with 100 nM FITC-DREG56 for 35 min at 4°C, washed in PBS, 2% PFA fix, SLeX assay in PBS with 1% human serum albumin ….

Data set [2] deals with T1, L-selectin (cell surface, Jurkat T lymphocytes). Nature of the data set: flow cytometry titration. As to conditions: FITC-labeled, Jurkat cells, competition with 100 nM FITC-DREG56 for 35 min at 4°C, washed in PBS, 2% PFA fix, SLeX assay in PBS with 1% human serum albumin …, scale: apparent affinity relative to LS-Multi-Aptamer.

By IC50 is commonly meant the point on the concentration scale where inhibition reaches its midpoint. Regarding “TAGCCAAGGTAACCAGTACAAGGTGCTAAACGTAATGGCTTCGGCTTAC [LS-Aptamer (monovalent)]”, the half-maximal inhibitory concentration (IC50) in data set [1] was over 1000 nM. In addition, in data set [2], the binding signal is 0.001.

(Values after publication PMC4380364.)
